This test concerns the target HLA-A*24 (human). Put plainly: UV-exchange ELISA (anti-b2m); yield 50%-75%. Background: An ELISA detects its analyte on a solid surface through an enzyme-linked reagent.

On to GYAFTLPLF, for which the peptide exchange yield was in the range of 50 to 75%.
Regarding SYLNHLNNL, the peptide exchange yield is 50 to 75%.
The molecule YYFFVQEKI came in with a peptide exchange yield of 50 to 75%.
Then TYTNTLERL, with 50 to 75%; and IYRFITERF, with 50 to 75%; and GYKTFFNEF, with 50 to 75%.
SYVKVLHHL displayed a peptide exchange yield of 50 to 75%.
Then VYLPKIPSW, with 50 to 75%; and LYSELNKWSF, with 50 to 75%; and LYSELTETL, with 50 to 75%.
Then KYLESSATF, with 50 to 75%; and KYTDWTEFL, with 50 to 75%; and VYKDSIYYI, with 50 to 75%.
On to RFPVQGTVTF, for which the peptide exchange yield was in the range of 50 to 75%.
As to TYPDGTYTGRIF, the peptide exchange yield fell in the range of 50 to 75%.
TFDGHGVFF registered a peptide exchange yield of 50 to 75%.
To FYTFPFQQL belongs 50 to 75%; to SYLELANTL, 50 to 75%.
The molecule LYLENNAQTQF returned a peptide exchange yield of 50 to 75%.
Consider IYNPNLLTASKF, for which the peptide exchange yield lay in the range of 50 to 75%.
Then KYLMELTLI, with 50 to 75%.
As for IYGFFNENF, the peptide exchange yield was 50 to 75%.
SYLVIHERI displayed a peptide exchange yield of 50 to 75%.
Consider DYLKDPVTI, for which the peptide exchange yield fell in the range of 50 to 75%.
EYQEIFQQL registered a peptide exchange yield of 50 to 75%.
In turn, VYGEPRELL came in with a peptide exchange yield of 50 to 75%.
Then VYAIFRILL, with 50 to 75%.
To IYGEKLQFIF belongs 50 to 75%; to SFTKTSPNF, 50 to 75%.
The molecule AYAQLGYLL registered a peptide exchange yield of 50 to 75%.
Then VYQSLSNSL, with 50 to 75%.
To IFIDNSTQPLHF belongs 50 to 75%.
Then NYSPGLVSLIL, with 50 to 75%.
Take IYQFVADSF: the peptide exchange yield is 50 to 75%.
Consider VYPVVLNQI, for which the peptide exchange yield lay in the range of 50 to 75%.
The molecule AYIKGGWIL returned a peptide exchange yield of 50 to 75%.
EYNEVANLF displayed a peptide exchange yield of 50 to 75%.
Then YYLGSGRETF, with 50 to 75%; and KYQYVLNEF, with 50 to 75%; and KYVGQLAVL, with 50 to 75%.
In turn, VFGKSAYLF returned a peptide exchange yield of 50 to 75%.
For the molecule VWLPASVLF, the peptide exchange yield was in the range of 50 to 75%.
Then EYLSTCSKL, with 50 to 75%.
Turning to VYVGDALLHAI, the peptide exchange yield lay in the range of 50 to 75%.
Then GYNPNRVFF, with 50 to 75%; and VFIHHLPQF, with 50 to 75%.
Then VHFEDTGKTLLF, with 50 to 75%; and TYPSQLPSL, with 50 to 75%; and QYLTAAALHNL, with 50 to 75%.
In turn, FYVNVKEQF had a peptide exchange yield of 50 to 75%.
Molecule RYILENHDF registered a peptide exchange yield of 50 to 75%.
To IYQYVADNF belongs 50 to 75%; to LYSDAFKFIVF, 50 to 75%.
The molecule VYQKIILKF showed a peptide exchange yield of 50 to 75%.
For the molecule YYSQESKVLYL, the peptide exchange yield lay within 50 to 75%.
As to LYPQLFVVL, the peptide exchange yield is 50 to 75%.
Then RYSTFSEIF, with 50 to 75%.
Then SYLKAVFNL, with 50 to 75%.
Regarding VYPAEQPQI, the peptide exchange yield fell in the range of 50 to 75%.
The molecule QYPYLQAFF yielded a peptide exchange yield of 50 to 75%.
To TYGMVMVTF belongs 50 to 75%; to LYSVIKEDF, 50 to 75%; to NYLVDPVTI, 50 to 75%.
The molecule SYLPAIWLL gave a peptide exchange yield of 50 to 75%.
RYVEGIVSL gave a peptide exchange yield of 50 to 75%.
Then YYLSDSPLL, with 50 to 75%.
Regarding LYLPVHYGF, the peptide exchange yield was in the range of 50 to 75%.
To VYTKALSSL belongs 50 to 75%; to PYFFANQEF, 50 to 75%.

For the origin of these results see patent US20170056486A1.
